Measurements: article PMC2836939
Where two headings read alike, the source gives them in different places.

Columns and labels:
Assay in all cases: EMSA
Dmp1 (Dmtf1) [1] = biological target: T1, Dmp1 (Dmtf1) (UniProt Q8CE22 1-761)
T1 sequence: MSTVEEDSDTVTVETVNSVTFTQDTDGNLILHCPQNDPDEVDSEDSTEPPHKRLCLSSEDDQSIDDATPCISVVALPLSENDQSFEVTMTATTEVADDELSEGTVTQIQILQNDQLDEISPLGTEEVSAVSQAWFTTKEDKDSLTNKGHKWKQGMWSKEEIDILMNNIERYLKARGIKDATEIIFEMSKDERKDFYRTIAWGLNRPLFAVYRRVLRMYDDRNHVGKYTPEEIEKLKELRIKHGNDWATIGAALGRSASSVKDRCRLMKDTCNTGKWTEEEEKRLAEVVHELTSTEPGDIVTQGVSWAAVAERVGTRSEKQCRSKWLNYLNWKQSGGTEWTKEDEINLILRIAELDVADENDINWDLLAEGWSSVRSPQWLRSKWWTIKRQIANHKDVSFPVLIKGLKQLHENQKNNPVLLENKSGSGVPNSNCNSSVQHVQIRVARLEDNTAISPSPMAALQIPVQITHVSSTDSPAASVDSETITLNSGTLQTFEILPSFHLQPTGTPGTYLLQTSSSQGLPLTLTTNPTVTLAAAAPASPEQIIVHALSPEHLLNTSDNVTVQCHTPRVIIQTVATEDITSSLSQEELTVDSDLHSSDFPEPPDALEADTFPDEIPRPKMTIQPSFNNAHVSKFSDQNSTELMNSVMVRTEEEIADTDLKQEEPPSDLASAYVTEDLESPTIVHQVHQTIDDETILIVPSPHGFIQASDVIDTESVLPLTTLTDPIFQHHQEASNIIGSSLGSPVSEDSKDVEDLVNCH

Dmp1 (Dmtf1) [2] = biological target: T1, Dmp1 (Dmtf1); remark: listed apart in the source
Dmp1 (Dmtf1) [3] = biological target: T1, Dmp1 (Dmtf1); remark: listed apart in the source
Dmp1 (Dmtf1) [4] = biological target: T1, Dmp1 (Dmtf1); remark: listed apart in the source
Dmp1 (Dmtf1) [5] = biological target: T1, Dmp1 (Dmtf1); remark: listed apart in the source

B1: JunB#2 (control) (dsDNA)
DNA 1: TTTGAGCCCTGGGAGCCATCCGAGCGGCTTTCAACAGACC
DNA 2: GGTCTGTTGAAAGCCGCTCGGATGGCTCCCAGGGCTCAAA
Q: Does B1 bind (Dmp1 (Dmtf1) [1])?
A: no binding

B2: Egr1#1 (dsDNA)
DNA 1: TTTAAAACGAAGGTGGAGGCGGATGGAGAGAGAGAGAGAGAG
DNA 2: CTCTCTCTCTCTCTCTCCATCCGCCTCCACCTTCGTTTTAAA
Q: Does B2 bind (Dmp1 (Dmtf1) [2])?
A: binds

B3: Areg#2 (dsDNA)
DNA 1: TTTGCTCAGGTGAGCATCCGCCACCTCTCAGG
DNA 2: CCTGAGAGGTGGCGGATGCTCACCTGAGCAAA
Q: Does B3 bind (Dmp1 (Dmtf1) [3])?
A: binds

B4: Tsp-1#1 (dsDNA)
DNA 1: TTTCAGAGCCTGCGTATGTTATAACG
DNA 2: CGTTATAACATACGCAGGCTCTGAAA
Q: Does B4 bind (Dmp1 (Dmtf1) [4])?
A: binds

B5: Areg#1 (dsDNA)
DNA 1: TTTACCCCAGAACGGGATGGGGAGCAT
DNA 2: ATGCTCCCCATCCCGTTCTGGGGTAAA
Q: Does B5 bind (Dmp1 (Dmtf1) [5])?
A: binds

B6: JunB#1 (dsDNA)
DNA 1: TTTTTTTCTTCCAAGCTGGGCGGATGGAGGGAGAAGATTG
DNA 2: CAATCTTCTCCCTCCATCCGCCCAGCTTGGAAGAAAAAAA
Q: Does B6 bind (Dmp1 (Dmtf1) [1])?
A: binds
